This note sets out measurements from paper PMC12990707, “Multiple novel hepatocellular carcinoma signature genes are commonly controlled by the master pluripotency factor OCT4”.

B1: TK1 probe 3 (dsDNA)
DNA 1: CGGGCTAACACCTTCACACTTTATGCAGAAAGTAACAAGGAACCATTCTGAG
DNA 2: CTCAGAATGGTTCCTTGTTACTTTCTGCATAAAGTGTGAAGGTGTTAGCCCG
B2: TK1 probe 2 (dsDNA)
DNA 1: CCTGGCAGGGTCTACGGATATTATTAGCATAGTCAGGACTTCAATTTTCTTT
DNA 2: AAAGAAAATTGAAGTCCTGACTATGCTAATAATATCCGTAGACCCTGCCAGG
B3: TK1 probe 1 (dsDNA)
DNA 1: GGGACCTGGCACGCACTAGGCGCTCTGCATGCCCACAGGAGTGCTCTAGACG
DNA 2: CGTCTAGAGCACTCCTGTGGGCATGCAGAGCGCCTAGTGCGTGCCAGGTCCC

In the data set the target is OCT4 (human, UniProt Q01860 1-360). Kind of data set: EMSA; LightShift chemiluminescent EMSA kit (Thermo 20148) per manufacturer; buffer, salt, pH and temperature not stated. The conditions noted are these: protein: recombinant; label: 5' biotin on both strands; blunt.
OCT4, sequence (Q01860 whole entry): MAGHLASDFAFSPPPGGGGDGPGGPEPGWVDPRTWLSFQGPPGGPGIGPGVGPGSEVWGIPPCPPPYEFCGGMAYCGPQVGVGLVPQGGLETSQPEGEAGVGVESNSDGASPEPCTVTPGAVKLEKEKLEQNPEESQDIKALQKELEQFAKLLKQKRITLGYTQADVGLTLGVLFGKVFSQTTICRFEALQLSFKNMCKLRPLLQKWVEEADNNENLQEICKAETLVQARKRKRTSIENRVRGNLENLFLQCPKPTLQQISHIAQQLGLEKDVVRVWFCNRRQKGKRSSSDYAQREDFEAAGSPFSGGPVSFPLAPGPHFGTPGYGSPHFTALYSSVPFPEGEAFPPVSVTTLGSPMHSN
For B1, the binding result is reported as “binds”.

Consider B2, for which the binding result was “binds”.

Turning to B3, the binding result is “binds”.
